Measured values reported in patent publication US20120034231A1.

Experiments:
[1] = molecular target: human IL12Rβ1 (human) (UniProt P42701); assay: FACS on Baf3 cells transfected with human IL12Rβ1, mouse control mAb
[2] = molecular target: cynomolgus IL12Rβ1 (cynomolgus); assay: FACS on Baf3 cells transfected with cyno IL12Rβ1, mouse control mAb

Mab839 (mouse monoclonal anti-human IL12Rβ1 control antibody, R&D Systems, Cat# MAB839)
EC50 [1]: 2.35 nM
EC50 [2]: 1.47 nM
